The values below come from patent US20220033512A1 (University of California, published 2022).

Assay [1] deals with T1, human ENPP1, full length, over-expressed on HEK cells (human, UniProt P22413 1-925).
T1 construct: whole, on cells
T1 sequence (looked up): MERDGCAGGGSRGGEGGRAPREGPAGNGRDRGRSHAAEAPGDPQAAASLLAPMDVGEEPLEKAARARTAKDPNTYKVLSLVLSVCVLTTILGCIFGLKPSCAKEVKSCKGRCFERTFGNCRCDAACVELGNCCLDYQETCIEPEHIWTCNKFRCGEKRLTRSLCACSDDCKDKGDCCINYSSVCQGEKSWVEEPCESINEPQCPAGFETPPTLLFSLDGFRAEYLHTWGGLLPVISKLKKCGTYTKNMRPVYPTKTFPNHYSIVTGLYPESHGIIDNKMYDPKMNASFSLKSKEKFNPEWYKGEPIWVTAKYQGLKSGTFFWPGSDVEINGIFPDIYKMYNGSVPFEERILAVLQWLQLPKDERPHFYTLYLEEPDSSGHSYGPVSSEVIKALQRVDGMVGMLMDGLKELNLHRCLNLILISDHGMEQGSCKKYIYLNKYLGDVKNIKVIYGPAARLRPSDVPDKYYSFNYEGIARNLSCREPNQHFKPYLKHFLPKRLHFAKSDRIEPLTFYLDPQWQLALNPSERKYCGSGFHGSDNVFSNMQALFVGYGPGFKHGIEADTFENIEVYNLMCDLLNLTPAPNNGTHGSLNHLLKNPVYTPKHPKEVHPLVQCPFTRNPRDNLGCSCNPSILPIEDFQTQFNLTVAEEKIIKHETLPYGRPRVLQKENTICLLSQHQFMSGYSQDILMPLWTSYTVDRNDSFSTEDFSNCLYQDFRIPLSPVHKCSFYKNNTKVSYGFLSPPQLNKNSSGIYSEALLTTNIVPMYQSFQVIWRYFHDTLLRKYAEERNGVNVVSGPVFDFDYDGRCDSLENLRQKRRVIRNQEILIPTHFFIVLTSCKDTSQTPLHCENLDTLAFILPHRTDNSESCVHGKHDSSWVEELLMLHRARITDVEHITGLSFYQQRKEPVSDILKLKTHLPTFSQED
The assay can be described thus: flow cytometry (mean fluorescence intensity) on HEK cells over-expressing full length human ENPP1. (In general: Flow cytometry measures light scatter and fluorescence of single cells or particles in a stream.)

Assay [2] has as its target T1, human ENPP1, full length, …. The assay can be described thus: flow cytometry (mean fluorescence intensity) on HEK cells over-expressing full length ENPP1, varying mAb concentrations, fitted in Graph Pad Prism.

B1: 12-J-4 ENPP1 monoclonal antibody (antibody, V domains shown)
VH: EVMLVESGGGLVKPGGSLKLSCVASGFTFSSYTMSWVRQTPEKRLEWVATISGGGGNTYYPDSVKGRFTISRDNAKNTLYLQMSSLRSEDTALYYCARRHYGSSPYAMDYWGQGTSVTVSS
VL: DIQMTQTTSSLSASLGDRVTISCRASQDISNYLNWYQQKPDGTVKLLIYHKTRLHSGVPSRFSGSGSGTDYSLTISNLEQEDIATYFCQQGNMLPWTFGGGTKLEIK
notes: The antibody is a recombinant IgG1kappa made in a CHO cell line, from a hybridoma raised against human recombinant ENPP1; Heavy chain about 48 kD, light chain about 24 kD; also called ENPP1 mAb; ENPP1mAb
By EC50 (read off the curve) is commonly meant the concentration at which the effect is half-maximal. High values mean a less potent agent, low ones a more potent agent. By Kd is commonly meant the constant that tells how readily two partners part at equilibrium. With B1, the “EC50 (read off the curve)” value in assay [1] is ~4 nM. In assay [2], this molecule yielded a Kd of 3.52 nM.
